From the supplement of paper PMC10126150
± gives the standard deviation of the averaged measurements.

Each sequence was assayed on ATP (assay: switch fluorescence ratio, 500 uM ATP over buffer (Cy3 cluster intensity, sum of 5 cycles each) (fold (ratio)); higher = stronger signal-on switching upon ATP binding; sequences stand for … in TCGTCGGCAGCGTCAGATGTGTATAAGAGACAGTTTTTTTTTTTTTTTTTTTTTTTTT…TC). Conditions: aptamer strand: ATP DNA aptamer (quencher-CACCTGGGGGAGTATTGCGGAGGAAGG + anchor), 100 nM annealed; ATP concentration: 500 uM.
Summary of the method: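 Values give the fluorescence ratio for each switch-domain sequence, averaged from per-cluster ratios of summed target-cycle to summed buffer-cycle Cy3 intensity. The Cy3-labelled switching-strand clusters sat on a modified Illumina MiSeq flow-cell, were annealed to 100 nM quencher-labelled ATP aptamer, and were imaged in selection buffer, then after 15 min with 500 uM ATP at 22 °C. Five cycles ran with NaOH stripping and re-annealing between them, and clusters outside 100-1000 RFU were excluded.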
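Note: ATP exposure 15 min at 22 °C before imaging.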

Sequence	switch fluorescence ratio
AAGGAATTAA	1.07 ± 0.12
CGAACTGCGT	1.02 ± 0.034
CCCTAATAGA	1.03 ± 0.026
TCATACGTCT	0.986 ± 0.09
AAACGGCATC	1.073 ± 0.0074
ATTTACCGGA	1.04 ± 0.052
TACTAAGTAT	0.996 ± 0.069
ATAAAGTTGA	1 ± 0.034
TCTAGGAAAG	0.991 ± 0.034
TGCGGATATG	0.982 ± 0.023
CGTAGGGAAT	1.014 ± 0.0064
GTGTAATAAG	0.99 ± 0.031
TTAGGTACGA	1.05 ± 0.011
AGTTCACTGG	0.979 ± 0.02
CTGGGGATTT	1.02 ± 0.013
AGGGTTGCTG	1.05 ± 0.074
TGAAATGTTT	0.999 ± 0.031
CAGGGGCGAC	1.02 ± 0.049
GGGGGTAGGT	0.985 ± 0.036
ACGAAGGGGT	1.03 ± 0.021
TTCAAAGATG	0.9743 ± 0.0021
GTTTTCTATA	0.975 ± 0.039
GGCATTATAT	0.9984 ± 0.0058
ATACGAGGGC	1.01 ± 0.028
AAGCGGGCAG	1 ± 0.02

Sequence	switch fluorescence ratio
GCGTATTCTA	1 ± 0.033
TCGGGGGGG	1.01 ± 0.016
GCTTATATAT	0.98542 ± 0.00086
AGAGGGGTAC	0.992 ± 0.047
GGAACGTGAG	1.011 ± 0.0011
ATTACGTCCT	1.03 ± 0.036
AGAAGTTTTC	0.973 ± 0.038
CGTGGGGGTC	1.01 ± 0.013
TGCGAGGGGG	1.01 ± 0.033
AGGGCTATGT	0.9804 ± 0.005
TGGAAGGAGC	1.07 ± 0.049
TTACATATAG	1.04 ± 0.015
AGTAGGCGCT	1.01 ± 0.048
TGGGGATAGT	0.968 ± 0.018
ATATCAGCAT	1.065 ± 0.005
GGGGGGTAAC	1 ± 0.019
ACGCGGCTAT	1.06 ± 0.033
ATATTGTTGT	0.997 ± 0.057
TGGGAAAAAC	1.09 ± 0.1
ATGGGCAGGT	0.985 ± 0.02
CGGTTTACGT	0.997 ± 0.018
TCGTGGGCGA	0.993 ± 0.011
GCAGTGGGGT	1.01 ± 0.022
TAAATTGGTT	0.981 ± 0.0078
CGCTTGGTAC	3.39 ± 0.079

Sequence	switch fluorescence ratio
TTTTCACTTC	1.03 ± 0.069
CGTAGGGGGA	0.984 ± 0.015
CGGTGGAGCT	1.01 ± 0.052
GTCAGCCTTT	0.983 ± 0.025
GGTGTAGTTG	0.999 ± 0.037
ACTCGGTCTG	1.02 ± 0.027
GCTCCAGGTA	1.577 ± 0.0021
CTGAAGTTGT	1.01 ± 0.032
AGGCCCGGGA	0.997 ± 0.013
AAATGAGTTT	1.02 ± 0.013
TGCGACTCGG	0.9988 ± 0.0056
AGAGGCCTTG	0.969 ± 0.013
ACTGCGAATT	1.07 ± 0.023
TGCGAATTAG	0.998 ± 0.019
TAGTAAATCG	1.007 ± 0.0078
TATCTTCTAT	1.035 ± 0.0096
TTGAGGTGCA	0.992 ± 0.025
AGTAGGGGGA	0.9912 ± 0.0034
GGTAACTTGG	1.01 ± 0.034
TTTCAGGACT	0.996 ± 0.041
TTTATTGATG	0.997 ± 0.016
AGTTAATAAT	1.01 ± 0.032
GTGGTACGTA	1.02 ± 0.06
CTTTAACGAG	0.9976 ± 0.0043
GCATATCTGT	1.0296 ± 0.00023

Sequence	switch fluorescence ratio
TACCAATTAA	1.01 ± 0.026
TTGTTGTGTT	1.005 ± 0.0098
TTTGTCTGGT	0.992 ± 0.017
GTGCGACGTT	0.965 ± 0.08
TAAGCTTATG	0.9852 ± 0.0033
ATTTTCAACT	1.03 ± 0.018
ATATTCAGGG	1.01 ± 0.031
TTTTGGTCTG	1.01 ± 0.031
AAGGTAGTGT	0.989 ± 0.028
GAAAAAGCGG	1.04 ± 0.015
TTTATAGAAA	1.05 ± 0.02
GGGGGTTTCG	0.999 ± 0.036
GATTCAAAGG	0.9911 ± 0.004
TTGAGTTGTT	1.02 ± 0.082
TGTAAAGGGA	0.998 ± 0.024
CTTCTAGTCC	1.03 ± 0.028
TAGCTTTAAC	1.0888 ± 0.00092
CGATTTGCCT	0.9806 ± 0.006
TAGCTTGGGG	0.9985 ± 0.0046
ATCGGTCAGC	0.982 ± 0.022
TATCTATGAG	1.01 ± 0.046
GATGAGAGGT	0.999 ± 0.015
TGATGGGGCA	1.02 ± 0.021
CTGGTTCTTT	0.9898 ± 0.0082
CTTGCTTTTT	0.948 ± 0.0035

Sequence	switch fluorescence ratio
AGATGGCGCT	0.967 ± 0.029
AAGTATATGG	1.03 ± 0.029
ATATCTAAGT	0.9984 ± 0.0034
ACAGGGAGTA	0.9864 ± 0.003
ATTCGATAGT	1.03 ± 0.018
CGCTGTTTTT	1.02 ± 0.024
TAGTACTGTG	0.998 ± 0.017
ATAATTCGGT	0.985 ± 0.025
CGGTAGAGGT	1.01 ± 0.016
TTGTGTTATC	1.01 ± 0.012
TTTTCATATC	1.04 ± 0.025
AATTAGGTGA	1.04 ± 0.031
TCTAGCGTAC	2.64 ± 0.44
GAGTAAGGGT	0.99 ± 0.024
AATTGAGTGT	1.01 ± 0.019
GGTTTGTTAT	1 ± 0.014
GTAGTAGGGA	1.01 ± 0.025
CGACATTGAG	0.967 ± 0.012
CATGGGGGCT	0.964 ± 0.024
TATGATGCTA	1.03 ± 0.088
TAGTATGGTA	1.01 ± 0.011
AACACTGATT	1.04 ± 0.026
TGGGTAAGGG	1.01 ± 0.03
GGTTGAGTGT	0.9836 ± 0.0046
ATCCGTATGT	1.05 ± 0.014

Sequence	switch fluorescence ratio
TGGAAATAGG	0.981 ± 0.039
TATTTTACAG	1.02 ± 0.02
GCTAACGGCA	0.994 ± 0.03
TCTCGGGGCT	0.97 ± 0.011
TCAATTTAGG	0.966 ± 0.014
GCGATTTTTT	0.974 ± 0.021
GAAATTAGCC	1.053 ± 0.0092
TGGCTGGGTT	1 ± 0.054
TACTTTTTAG	1.02 ± 0.029
TTGTATGTTA	1 ± 0.017
TATATGTATC	0.9678 ± 0.0011
TTGTATCACG	1.03 ± 0.059
TGTTGTAGAA	0.973 ± 0.013
TGTTTTGCGG	0.9696 ± 0.0063
TAAGGGGATG	0.99 ± 0.011
GGATTAAAAG	1.01 ± 0.067
AATGTGTCA	1.01 ± 0.011
AATCGGGGTC	1.01 ± 0.015
TTTTACCACC	1.22 ± 0.049
GTTATAGGAG	0.99 ± 0.019
AATAATCGGT	0.975 ± 0.035
TGTCGGTCGG	0.984 ± 0.015
TTACAGTGGA	1.01 ± 0.0018
TGCATTTGGG	0.9893 ± 0.0031
CCAGCCTAGT	0.98408 ± 0.0008

Sequence	switch fluorescence ratio
TAAGGGTGTA	0.9934 ± 0.004
TTTTGCTTCT	1.03 ± 0.02
CAAGGTTGAG	0.979 ± 0.034
GCTAATAAAT	1.046 ± 0.0035
TAAGTTGTTT	0.996 ± 0.013
AAAGAATTCG	0.974 ± 0.037
GAGGGGAAGT	0.9982 ± 0.004
TCGGGGCGGG	1.01 ± 0.056
GATGACTTGT	0.972 ± 0.011
CATAAGGTTG	0.991 ± 0.017
ACTTGAAGTG	0.997 ± 0.021
AGGGTTGTGC	1.03 ± 0.049
TAATATTTCG	1.05 ± 0.04
TTAGGTAATA	1 ± 0.022
TGGGGGGTAT	1 ± 0.03
ATTATGTTGT	0.981 ± 0.028
CGGCTTGGT	1.02 ± 0.015
TACGAGGGGG	1 ± 0.021
CGGTTAGGTG	1.06 ± 0.021
TTGGAAGGTT	1.32 ± 0.42
CTCGGATAGC	1.02 ± 0.045
GATAGTGAAA	1.02 ± 0.035
CGAAACTTTG	0.974 ± 0.046
ATGATTGGCC	0.9882 ± 0.0086
GGGGGTTGAA	1 ± 0.029
